Experimental data: the DeepSol protein solubility set

Test: soluble on expression in E. coli; label from the status in PepcDB or PDB records

Sequence | soluble on expression in E. coli
MDRAPVSSRRPCASQDPQRRPLCREEEGATPTALAVSSTTLGGRGGAHMCSCTVSSPNREGTCSSNILSYTLTHSTSPVVPWGCGRQPNHLQAPPRLAPLTESPIVARGFGPPPIAPAPLALAESSEHALCAPQLTFTAGAPGGTCLCSARSALPLLPFSSVLTASQRATPVPVWRRSKPLTRLPATTLGPTLSGNSGSPDDVVVALSDASMPKGETGEWMCAEASLQPSAAEPTPNAGSAVRHVDYQAAATQTGCVGSSLAAKVATESSQMALPDALAHLVEPPQGASAPSKTATDQLVNAPVGDIELRKRREEDSSDARASLSSALSSLGHPSNHNVHSSVDGVLWAHEAPEQPAYAHQHQLPAIFSQLVQDLLAAEPRADVEGDDDLLERWIQSWFENRCMTQPLQQSRSNSMKHLRTLQEAAVGAIANGAYVQGARSSNYVEPREKPAVDKNVGDATHAGPAARPAAGPSTTISASAAVTRTTTKSASAQLFPSSTAASPPHQYVPLTVEYSCSTLQSRMTSGASQRATSPPKPPQAQPLPVSPGTLHTAGASSTPGPPPHSAADGGGGVLAAVVGLSSPPQQPQQQPQPAKPLSGGPHLPAPASTRSMSSKQTVVAAAALAGGGEGDKGASGARPKLATTACAVFAHSSSSSAPKEAAHPHE | soluble
MKINNKLVGERIQNIRLSHGDSMEKFGEKFNTSKGTVNNWEKGRNLPNKENLLKIASIGKMSVEELLYGDYNTYLHLKIMDLAPECIKNYDEYNSLHDDITNKALQIAQNTISKIDYQISDETIKKFIDLAIEQSRDLQGNLLKNNLSNFDYSLFGGTRNREYFYFGYRLTYKEKYLYTALLAILNESTKTIYIDDINTARFFNFFGNDIPNSSLKKIDYIAPSEIVSFSTYVRQRSKVIPKILEHILKSSFLLENIDVSGYTVNILEDQLTKHRTIKISKN | not soluble
MGSDKIHHHHHHMSETTGLQLRSLIKASGDLEVSLVPVSIPEPGPDEVVVRVEATPINPSDLGLLFGAADMSSAKASGTPDAPVITAKVPEAAMKAMAGRLDESMPVGNEGAGTVIKAGSSDAAQALLGKTVAMIGGAMYAQYRLIKAADCLKLQDGTTAAEGASCFVNPLTALGMTETMKREGHKALVHTAAASNLGQMLNRICLKDGIDLVNIVRSEAQAKLLREIGAKYVVDSTAPTFLDDLTEALVKTGATIAFDAIGGGRLAGQILGCMEAAIGKTATGPYSRYGSNVLKQVYIYGSLDTKPTEIVRNFGFAWAAGGWLLFPFLQKIGAADAAKLRARVAAEIKTTFASRYTKVVSLKEALTLDAIAIYNKRATGEKYLIDPTK | not soluble
MKEKTPFKNEKEFHDMVKKTKKGTFSGWYIVNPENNSVEFSGNFNRQFKLNKPVIPVNTEYVTRKEFNEYKDSNDQRLIKIETTLAAQGEQIRIQGEQIKELQIEQKAQSETLKLILQTLQKMSDRLDKMDVRLDKLESK | soluble
MTQAILALSQIEKAFPGVKALDKASLNVYPGRVMALMGENGAGKSTLMKVLTGIYSKDAGSIEYQGQPVSFKGPRDSQLAGISIIHQELNLIPQLTIAENIFLGREMTSPFGRILWDEMHRKADQLLARLNVKHSAKTLLGELSLGEQQMVEIAKALSFESKVIIMDEPTDALTDTETESLFNVINELREQGCGIVYISHRLKEIFEICDDITVLRDGKFIGECRVCDTNEDGLIEMMVGRKLEEQYPRIAAQQGDISLEVIGLTGSGVHDVSFTLKKGEILGVSGLMGAGRTELMKVIYGALPSERGVINLNGRTVNPVSPQDGLANGIAYISEDRKGDGLVLGLSVKENMSLCALDQLSKGVQIRHADEVIAVDDFIRLFNIKTPSREQIIGNLSGGNQQKVAIAKGLMTKPKVLILDEPTRGVDVGAKKEIYQLINQFKAEGMSIILVSSEMPEVLGMSDRILVMHEGRISGEFMASEADQEKLMACAVGRNPAHAA | not soluble
KIYSGRILIPLQHILKELKRIRANSLNRRLKTTGNNDELEDMIETLNSMLDRLDSAFKAEKSFVSHASHELNNPITAIQGECEISLLKERSTGEYIEALQRISSESKRISNLIRHLLFLSRQDEELIKSNMEAMSLPDMLNDLIKMNERIRLHYQETGKAAT | not soluble
FYGEKATLNDGKLTSAELSQMTISGEKHVTEEEFGYCTEYVLKLGMSVSQEVEKQKFNQKKFESKVSKIATSVVVASDKDNGFVKVHAHTEKPNLLLELGLNYGEFELVKIENMNLQVAKQKPAPVKRNIKPAIVVTVPTEAFADRIREDYDIQAILCTDDTGAPSVFSLLEAVKLTHSSNIIFLLHDKNYFLSANEALKQLKHQKISADCVMTTNPIESLAALTVFNSDLNIHTNVKTMRRFVKGFASATITQASKKYKENRIEVNKGDFIAVANNSICVSEKELVQCVFNTIDHLLKKVKKPEFLLAYYGKDITAEEAEAMKEKIEKKYKLFCEFSPGEQKVFSYILGIQ | soluble
MRTSFFAAAALLAVSAFAQAHEYNAGQLHIEHPWALALPPTSPNGAAYFVVQNHGKENDTLLGADTPRAASAEVHEHVHKNGMMSMQKVDSVDVAPGKDLRFAPGGYHLMLMGLKQPLVAGERFPLTLHFRKAGDVPVEIVVESKAPAEQGGHEQHGH | soluble
MSLNEPDGVLSYQRPDEEAVVDQGGTSTILNIHYEKEELEGHRTLYVGVRMPLGRQSHRHHRTHGQKHRRRGGRGKGASQGEEGLEALAHDTPSQRVQFILGTEEDEEHVPHELFTELDEICMKEGEDAEWKETARWLKFEEDVEDGGERWSKPYVATLSLHSLFELRSCLINGSVLLDMRASSIEEISDLILDQQELLRDLSDSVRVKVREALLKKHHHQNERRRNNLIPIVRSFAEVGKKQSDPHSMDRDGQTVSPQSATNLEVKNGVNCEHSPVDLSKVDLHFMKKIPTGAEASNVLVGEVDTLDRPIVAFVRLSPAVLLSGLTEVPIPTRFLFILLGPVGKGQQYHEIGRSMATIMTDEIFHDVAYKAKERDDLLAGIDEFLDQVTVLPPGEWDPSIRIEPPKNVPSQEKRKMPGVPNGNVCHIEPEPHGGHSGEGHHHHHH | soluble
MGSDKIHHHHHHMTYLVTGATGGLGGYALNYLKELVPMSDIYALVRSEEKGADLKAAGFNIRVGDYSDAESMKQAFVGIDRVLFVSGAPGNRQVEHENVVNAAKAAGVSYIAYTSFAGADKSTSALAEDHFFTEKVIEKSGIAHTFLRNNWYFENEMPMIGGALSAGKFVYAAENGKVGWALKREYAEVAAKAVAGADFPEILELSGPLMTYEELTKALKEATGKDFDVISSDDKGFVENLVSAGLPQPVAEMFLSFQHDIKNDQLDVTSDDFEKALGKPLTNRVDALRELLK | not soluble
MGHHHHHHSHMCSALVVAAPHSGSGKTTVTAAIARYHRVQGRKVTVFKVGPDFIDPMILRQASGELVYQLDLWLVGEQGCRALLHRAAMDSDLILIEGVMGLFDGTPSSADLAKYFNIPVLGVIDAKAMAQTFAAVTFGLAKFCEDLPFSGVIANRVNTERHAELLSVSLPKAFRFYGRIPKDDTITLPERHLGLVQAQELSDIDVQLDKAASHIANTG | not soluble
MTLLGTALRPAATRVMLLGSGELGKEVAIECQRLGVEVIAVDRYADAPAMHVAHRSHVINMLDGDALRRVVELEKPHYIVPEIEAIATDMLIQLEEEGLNVVPCARATKLTMNREGIRRLAAEELQLPTSTYRFADSESLFREAVADIGYPCIVKPVMSSSGKGQTFIRSAEQLAQAWKYAQQGGRAGAGRVIVEGVVKFDFEITLLTVSAVDGVHFCAPVGHRQEDGDYRESWQPQQMSPLALERAQEIARKVVLALGGYGLFGVELFVCGDEVIFSEVSPRPHDTGMVTLISQDLSEFALHVRAFLGLPVGGIRQYGPAASAVILPQLTSQNVTFDNVQNAVGADLQIRLFGKPEIDGSRRLGVALATAESVVDAIERAKHAAGQVKVQG | soluble
GPGSMNCFGVRNWWRNNLPELQLLNPFCSFTIQELSFGEPHMYINYTPTDQRMIRLAGATEDECEDIMEACITYGMNHAIIERPRTDDGGDLINQPAITSFGYTESFMSKLEVSPPADIGQRTPEGVDDPGQKPRVYPRNVGFKIMP | not soluble
ALGAPDGVTQGASLSRSIQPLLDAHPGKTGLHVLEKGEESLLARAWLADHATETIDVQYFIWSTDNIGILASEALLRAAERGVRVRVLVDDLLIDAPPESLLALARHPRIDIRIYNPTMTVGTSKVKRLGNVVTGFRSVNQRMHDKTALFDGVVGITGGRNMADEYYDYDQEYTFRDRDILMLGPAVAEAEASFARFWESPLAVPVEKLLKKGMKKMT | not soluble
MTVIQKSSPTVKGVKTTTSDCTERRHSSSSPCKMSQNGSSGYYEGDVLLDDDALVSMPEATLIECFGNLAVTKRPAHLRPPAAFCLPFVSMNNDLTSGHALKHITLTSVFDALHPYVAMPYINRMDICSAMNVYWIRNCLEAEQSDLFHRFALEMQVHLSACFGCRVVLDIYGSTRNGFGTRFCDVDMSLSFSPSPPSWATNSDRVMRAVAKALVDFPKAVDERYVNAKVPIVRFRSSDMDMEADISYKNDLALHNTQLLQQYCKWDPERLPTLGVWVKAWAKRSGVGDASKGSLSSYAWIVMLIHYLQQVEPIPVLPCLQEMNHQKSENVYVQGYNTYYWKFVDTARTRRCRASVVDLFVGFLDYYATYFDYSTNVIQMVSKKLEFKPDRWCKYPMCIADPFETDHNLAQGVDMPMFEYIRSCMEHSKKVFTDRRMRSEFLSGYGFDVDEFDARHRGEMNMEMASQFGEFLLHKCIMVKQAPNRQFRDRSMSQSTSISNTSSISSSG | soluble
MGSSHHHHHHMQPEHVKERYKNFLNQHVGPDMSVQRCNSEIGPNNRKITLSGTDNGCKPVNTFILANKRLIKTVCGRAGSPQGNMVRSNQPFPVVKCVLNNGERHPYCEYRGTRSTRYIVLKCEEGWPVHYHEDEVNVG | soluble
MTTRILTGITPTGTPHLGNYAGAIRPAILASRRSDVDSFYFLADYHALIKCDDPARIQRSRLEIAATWLAGGLDVERATFYRQSDIPEIPELTWLLTCVSAKGLLNRAHAYKAAVDRNVEAGEDPDAGVTMGLYSYPVLMAADILMFNAHKIPVGRDQVQHVEMARDIGQRFNHLFGNGREFFVLPEAVIEENVATLPGLDGRKMSKSYDNTIPLFSPSRQLKDAIARIVTDSRAPGEPKDPDSSHLFLLYSAFASAEQVAAFRQELLEGLAWGEAKQRLFQLLDNELGEARERYQALIAKPDDIEDILLAGAAKARRIATPFIAELREAVGLRSLREPLKSAESGKKKAAKAARLVSFRDDDGSFRFRLLDAAGEQLLLSRAFADGKAAGAVSKRLLAGETADLRAEGNAFGLWLDGEAVAQSPAFADAAARDAAIERTREALAPQ | not soluble
MRCQPFCRNLAGFPQNSPAQSTTMTYTHGSALPSTDDVTIDADVATEELTGTAAFDAGVGDMPSWEELVAQHADSVYRLAFRLSGNQHDAEDLTQETFMRVFRSLKGYQPGTFEGWLHRITTNLFLDMVRHRAKIRMEALPEDYERVPGTDMTPEQAYNVSNLDPALQKALDDLSPDFRVAVVLCDVVGMSYDEIADTLGVKMGTVRSRIHRGRSQLRAHLENQATSDEGAQLLLATGR | not soluble
MGSDKIHHHHHHVARLVASVDKYIYTVNGDTILSHQFISNNAQFGNGIEVSQDNHFPWSGEIHYEINNPNQLAFKLGIRIPSWSRNKFGLKINGKKIDLASEDGFIYINVNDESLTVDLSLDMNTKFMRSSNKVSSNYGKIAVQRGPIVYAAEETDNKAPLWNYKVETDKEPKYHYNKDLLEGVGTITVKSIAEEISPEDGPLYSTIDEATANYETDLKLIPYYAWANREEGQMQVWLNK | not soluble
